Source: US20220088195A1, “Prevention or mitigation of T-cell bispecific antibody-related adverse effects” (Hoffmann-La Roche Inc., priority 2020, published 2022)

Tested on: MKN45 NLR target cells
Experiment: Reversibility killing assay with two and three stimulations (OFF/ON, ON/OFF/ON), MKN45 NLR + CEA-TCB, Incucyte
Type: cell-based, human
Settings: 1 nM CEA-TCB, no dasatinib
Experimental: FIG. 16. In vitro killing assay set-up and timelines. PBMCs were stimulated on MKN45 NLR (E:T=10:1) target cells with 1 nM CEA-TCB for 96 hours. Activated PBMCs were washed and restimulated on new MKN45 NLR target cells (E:T=10:1) with 1 nM CEA-TCB in the presence of 25 nM dasatinib for 72 hours. Activated PBMCs were washed to remove dasatinib and restimulated on new MKN45 NLR target cells (E:T=10:1) with 1 nM CEA-TCB (“ON/OFF/ON”, see upper row of table), or vice versa (“OFF/ON/OFF”, see lower row of table). Killing was followed by Incucyte®.
FIG. 17. Real time killing of MKN45 NLR target cells by CEA-TCB in the presence of 25 nM dasatinib (0-72 h) upon first stimulation and in the absence of 25 nM dasatinib (96-170 h) upon restimulation, in the assay of FIG. 16 (“OFF/ON”).
FIG. 19. Real time killing of MKN45 NLR target cells by CEA-TCB in the assay of FIG. 16 (“ON/OFF/ON”).
FIG. 21. CEA-TCB mediated target cell killing. (A) PBMCs were stimulated on MKN45 NLR (E:T=10:1) target cells with 1 nM CEA-TCB for 96 hours in the presence and absence of dasatinib. (B) Activated PBMCs were washed to remove dasatinib and restimulated on new MKN45 NLR target cells (E:T=10:1) with 1 nM CEA-TCB. Killing was followed by Incucyte®.
We then verified if dasatinib's effect is reversible upon its removal. Therefore we set-up a killing assay with two and three stimulations in the presence and absence of dasatinib and followed the killing kinetics using an Incucyte® system (FIG. 16). After each stimulation, effector cells were washed and re-stimulated on fresh MKN45 NLR target cells with 1 nM CEA TCB in the presence and absence of dasatinib allowing to mimic OFF/ON switch and ON/OFF/ON switch.
Lastly, we evaluated if the effect of dasatinib was reversible on activated T cells. Consequently, we supplemented the media with 25 nM dasatinib upon the second stimulation with 1 nM CEA-TCB to prevent killing from activated T cells and then removed the dasatinib upon third stimulation with 1 nM CEA-TCB to verify if killing would be restored. […] We concluded that the effect of dasatinib in the prevention of T cell activation and cytotoxicity is reversible.
For T-cell engaging antibodies, cytokine release peaks are higher upon the first treatment than after subsequent treatments. We were curious to see if low doses of dasatinib could prevent cytokine release while minimally affecting TCB-efficacy upon first stimulation. In killing assays as described in FIG. 16, the cytokine levels upon first treatment with 1 nM CEA-TCB in the presence of 6.25 nM and 12.5 nM dasatinib and upon second treatment with 1 nM CEA-TCB in the absence of dasatinib were measured in the supernatants. […] Its removal upon second stimulation may also balance the cytokine release and restore TCB-induced cytotoxicity due to the reversibility properties of dasatinib.

B1: CEA-TCB: T cell bispecific antibody binding CEA and CD3 (SEQ ID NOs 28-47) (antibody, chains of the INN, looked up, V domains shown)
VH: QVQLVQSGAEVKKPGASVKVSCKASGYTFTEFGMNWVRQAPGQGLEWMGWINTKTGEATYVEEFKGRVTFTTDTSTSTAYMELRSLRSDDTAVYYCARWDFAYYVEAMDYWGQGTTVTVSS
VL: DIQMTQSPSSLSASVGDRVTITCKASAAVGTYVAWYQQKPGKAPKLLIYSASYRKRGVPSRFSGSGSGTDFTLTISSLQPEDFATYYCHQYYTYPLFTFGQGTKLEIK
VH2: QVQLVQSGAEVKKPGASVKVSCKASGYTFTEFGMNWVRQAPGQGLEWMGWINTKTGEATYVEEFKGRVTFTTDTSTSTAYMELRSLRSDDTAVYYCARWDFAYYVEAMDYWGQGTTVTVSS
VL2: QAVVTQEPSLTVSPGGTVTLTCGSSTGAVTTSNYANWVQEKPGQAFRGLIGGTNKRAPGTPARFSGSLLGGKAALTLSGAQPEDEAEYYCALWYSNLWVFGGGTKLTVL
killing of MKN45 cells after first stimulation: triggered the killing
